Numbering of substitutions follows the chain as printed. In names and notes the source's numbering stands.
T1: monkey GFRα3 expressed with a C-terminal myc-myc-hexahistidine tag (monkey (Mf), UniProt O60609 32-374 (human entry), limits assumed)
T1 construct: also called MfGFRα3-mmh; MfGFRα3-mmH
T1 chain: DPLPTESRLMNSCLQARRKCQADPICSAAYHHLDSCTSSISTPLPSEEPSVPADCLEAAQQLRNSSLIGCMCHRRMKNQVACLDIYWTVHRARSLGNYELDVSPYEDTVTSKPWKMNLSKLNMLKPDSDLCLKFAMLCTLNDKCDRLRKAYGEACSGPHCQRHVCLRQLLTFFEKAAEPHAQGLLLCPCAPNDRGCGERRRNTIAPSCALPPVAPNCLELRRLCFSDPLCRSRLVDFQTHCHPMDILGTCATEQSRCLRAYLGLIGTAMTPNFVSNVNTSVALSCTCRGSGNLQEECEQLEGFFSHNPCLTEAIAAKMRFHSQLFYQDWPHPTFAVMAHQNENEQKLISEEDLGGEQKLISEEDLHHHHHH

B1: H4H2291S (antibody, human IgG4, V domains shown)
VH: EVQLVESGGGLVQPGESLRLSCAASGFTFSNYAMSWVRQAPGKGLEWVSVISGSGGSTYYADSVKGRFTMSRDNSKNTLYLQMNSLRAEDTAVYYCAKPPSRAARYFNYGMDVWGQGTTVTVSS
VL: AIRMTQSPSSVSASVGDRVTITCRASQGISSWLAWYQQKPGKAPKLLIYAASSLQSGVPSRFSGSGSGTDFTLTISSLQPEDFATYYCQQANSFPFTFGGGTKVEIK
notes: human IgG4 Fc (H4H)
B2: H4H2344S (antibody, human IgG4, V domains shown)
VH: EVQLVESGGGVVQPGRSLRLSCAASGFSFSDYVMHWVRQAPGKGLEWVASIWFDGSNEFYADSVKGRFTISRDNSKNTLFLQMNSLRAEDTAVYYCAKKGVLVATSAFDIWGQGTMVTVSS
VL: DIQMTQSPSSLSASVGDRVTITCRASQSINNYLNWYHQKPGKAPKLLIYAASSLQSGVPSRFSGSGSGTDYTLTISSLQPEDFGNYYCQQSYRTSMYTFGQGTKVEIK
notes: human IgG4 Fc (H4H)
B3: H4H2293P (antibody, human IgG4, V domains shown)
VH: B2 VH with E1Q, F59L, D109H
VL: B2 VL with D1A, S28N, K45N, R93S, V105L
notes: human IgG4 Fc (H4H)
B4: H4H2346S (antibody, human IgG4, V domains shown)
VH: B2 VH with E1Q
VL: B2 VL with D1E, Q3V
notes: human IgG4 Fc (H4H)
B5: H4H2354S (antibody, human IgG4, V domains shown)
VH: B2 VH with E1Q
VL: B2 VL with M4L
notes: human IgG4 Fc (H4H); also called H4H2354S-1
B6: H4H2295S (antibody, human IgG4, V domains shown)
VH: EVQLVESGGGLVQAGGSLRLSCVASGFTFSSYAMSWVRQAPGKGLEWVSAISGSGGSTYSADSVKGRFTISRDNSKNTLYLQMNSLRAEDTAVYYCTKPSSYSSSNFYYGMDVWGQGTTVTVSS
VL: B1 VL with A1D, R3Q, A50T, G68R, A91T, F94L, F96L, G100P
notes: human IgG4 Fc (H4H)
B7: H4H2296S (antibody, human IgG4, V domains shown)
VH: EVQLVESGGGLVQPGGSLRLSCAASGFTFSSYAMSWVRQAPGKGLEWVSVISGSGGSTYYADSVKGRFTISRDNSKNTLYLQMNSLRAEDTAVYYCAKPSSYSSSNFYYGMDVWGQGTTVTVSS
VL: B1 VL with A1D, R3V, Q55R, S76T, Q90H, A91T, G100P
notes: human IgG4 Fc (H4H)
B8: H4H2364S (antibody, human IgG4, V domains shown)
VH: B6 VH with V12E, A14P, V23A, A33V, A40V, A50V, S60Y, T97A, Y108H
VL: B1 VL with A1D, R3Q, S9Y, K42R, Q90K, A91T, G100P
notes: human IgG4 Fc (H4H)
B9: H4H2341S (antibody, human IgG4, V domains shown)
VH: EVQLVESGAEVKKSGSSVKVSCKASGGTFSRYAISWVRQAPGQGLEWMGGIIPLFGTLNYAQKFQGRVTLTTDESTSTAYMELSSLRSEDTAVYYCAVFYYGSGSYRNWFDPWGQGTLVTVSS
VL: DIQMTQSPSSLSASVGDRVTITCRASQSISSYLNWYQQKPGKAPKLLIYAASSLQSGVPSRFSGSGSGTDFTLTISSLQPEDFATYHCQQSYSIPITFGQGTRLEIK
notes: human IgG4 Fc (H4H)
B10: H4H2345S (antibody, human IgG4, V domains shown)
VH: EVQLVESGGGLVRPGRSLRLSCAASGFTFDNYAMHWVRQVPGKGLEWVSGITWNSVSLGYADSVKGRFTISRDNAQNSLYLQMNSLRTVDTALYYCAKDRWGGSYYFDFWGQGTLVTVSS
VL: DIVMTQSPSSLSASVGDRVTITCRASQGISNYLAWYQQKPGKVPKLLIYSASTLQSGVPSRFSGSGSGTDFTLTISNLQPEDFATFFCQKYNSAPTFGGGTKVEIK
notes: human IgG4 Fc (H4H)
B11: H4H2236N3 (antibody, human IgG4, V domains shown)
VH: EVQLLESGGNLVQPGGSLRLSCAASGFTFSSYAMTWVRQAPGKGLEWVSTISGSGTSTYYADSVKGRFTISRDNSRDTVFLQMNSLRAEDTAVYYCSKPSALRFLHWLAMDVWGQGTLVTVSS
VL: DIQMTQSPSSLSAFVGDRVTITCRASQDIRNYLDWFQQKPGKAPKSLIYAASNLQSGVPSRFGGSGSGTDFTLTINSLQPEDFVTYYCQQYNSYPPTFGGGTKVEIK
notes: human IgG4 Fc (H4H)
B12: H4H2212N (antibody, human IgG4, V domains shown)
VH: EVQLLESGGGLVQPGGSLRLSCAASGFTFSSYAMSWVRQGPGKGLEWVSGISGSGGSTYNADSVKGRFTISRDNSKNTLYLQMNSLRAEDTAVYYCAKDSGTYWYYFDYWGQGILVTVSS
VL: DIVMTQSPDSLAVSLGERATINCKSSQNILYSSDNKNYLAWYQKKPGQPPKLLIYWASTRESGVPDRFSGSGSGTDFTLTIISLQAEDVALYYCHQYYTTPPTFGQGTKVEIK
notes: human IgG4 Fc (H4H)
B13: H4H2243N2 (antibody, human IgG4, V domains shown)
VH: QVQLVQSGAEVKKPGASVKVSCKASGYTFTSYGIIWVRQAPGQGLEWMGWISGYNGNTNYAQNLQGRVTMTTDTSTTTAYMELRSLRSDDTAVYYCARWGIATRPYYYYGMDVWGQGTTVTVSS
VL: B11 VL with F14S, R30T, D34A, N53S, R61K, G63S, N76S, V84A, G100P, E105D
notes: human IgG4 Fc (H4H)

Molecular target: T1, monkey GFRα3 expressed with a …
Test: SPR, Ab captured, 25C
Experimental: Antibodies were tested for binding to human GFRα3 expressed with either a C-terminal myc-myc-hexahistidine tag (hGFRα3-mmh; SEQ ID: 370, a C-terminal hFc tag (hGFRα3-hFc; SEQ ID:371), or a C-terminal mFc tag (hGFRα3-mFc; SEQ ID:372), as well as monkey GFRα3 expressed with a C-terminal myc-myc-hexahistidine tag (MfGFRα3-mmh; SEQ ID:373). Anti-GFRα3 antibodies were captured on either a goat anti-mouse IgG polyclonal antibody (GE Healthcare, #BR-1008-38) or a mouse anti-human IgG monoclonal antibody (GE Healthcare, #BR-1008-39) surface created through direct amine coupling to a Biacore CM5 sensor chip. Kinetic experiments were carried out using HBS-EP (10 mM HEPES, 150 mM NaCl, 3 mM EDTA, 0.05% Surfactant P20, at pH 7.4) or PBS buffer containing 0.05% v/v surfactant P20 as both the running buffer and the sample buffer. Binding to human GFRα3-mmh or monkey GFRα3-mmh was evaluated by injecting several concentrations ranging from 200 to 7.4 nM (3-fold dilutions) across the captured antibody surface. Binding to human GFRα3-mFc or human GFRα3-hFc was evaluated by injecting several concentrations ranging from 100 to 3.7 nM (3-fold dilutions) across the captured antibody surface. Antibody-antigen association was monitored for up to 4 minutes, while dissociation in buffer was monitored for up to 20 minutes. Kinetic association (kₐ) and dissociation (kd) rate constants were determined by processing and fitting the data to a 1:1 binding model using Scrubber 2.0c curve fitting software. Binding dissociation equilibrium constants (KD) and dissociative half-lives (t_{1/2}) were calculated from the kinetic rate constants as: KD (M)=kd/kₐ and t_{1/2} (min)=[ln 2/(60*kd)].
B1 gave a Kd of 1.85 nM, a koff of 0.000279 s⁻¹ and a kon of 151000 M⁻¹ s⁻¹. The t1/2 was 0.683 h. B2 was tested, and the Kd was 1.1 nM, the koff was 0.000115 s⁻¹ and the kon was 104000 M⁻¹ s⁻¹. The t1/2 was 1.68 h. B3 gave a Kd of 0.144 nM, a koff of 4.17e-05 s⁻¹ and a kon of 290000 M⁻¹ s⁻¹. The t1/2 was 4.62 h. B4 showed a Kd of 0.556 nM, a koff of 5.98e-05 s⁻¹ and a kon of 108000 M⁻¹ s⁻¹. For the same binder, the t1/2 was 3.22 h. B5 was tested, and the Kd was 0.574 nM, the koff was 6.23e-05 s⁻¹ and the kon was 109000 M⁻¹ s⁻¹. It also gave a t1/2 of 3.08 h. Binder B6 has a Kd of 5.32 nM, a koff of 0.000973 s⁻¹ and a kon of 183000 M⁻¹ s⁻¹. The t1/2 was 0.2 h. B7 showed a Kd of 3.37 nM, a koff of 0.000651 s⁻¹ and a kon of 193000 M⁻¹ s⁻¹. It also gave a t1/2 of 0.3 h. Work on B8 yielded a Kd of 1.06 nM, a koff of 0.00013 s⁻¹ and a kon of 122000 M⁻¹ s⁻¹. The t1/2 was 1.48 h. Binder B9 has a Kd of 1.39 nM, a koff of 0.00013 s⁻¹ and a kon of 93800 M⁻¹ s⁻¹. The t1/2 was 1.48 h. B10 was tested, and the Kd was 28.7 nM, the koff was 0.00279 s⁻¹ and the kon was 97500 M⁻¹ s⁻¹. It also gave a t1/2 of 0.0667 h.

These binders were tested against T2, human GFRα3 expressed with a C-terminal myc-myc-hexahistidine tag (human, UniProt O60609 32-374, biotinylated (sites not given) in ELISA format 2 and in the Octet cross-competition; not in SPR) (assay: Octet cross-competition; biotin-hGFRα3-mmH pre-saturated with first antibody H4H2296S).
T2 construct: also called hGFRα3-mmh; hGFRα3-mmH
Experimental: (§1) A cross-competition assay was conducted to assess the ability of select antibodies to compete with one another for binding to human GFRα3 using an Octet RED384 biosensor (Fortebio Inc.). The entire experiment was performed at 25° C. with the flow rate of 1000 rpm in Octet HBST buffer (0.01 M HEPES pH7.4, 0.15M NaCl, 3 mM EDTA, 0.05% v/v Surfactant P20, 0.1 mg/mL BSA). To assess whether 2 antibodies were able to compete with one another for binding to their respective epitopes on biotinylated recombinant human GFRα3 expressed with a C-terminal myc-myc-hexahistidine tag (biotin-hGFRα3-mmH; SEQ ID:370), around ˜1.2 nm of biotin-hGFRα3-mmH was first captured onto streptavidin-coated Octet sensor tips (Fortebio Inc, #18-5019) by submerging the tips for 1 minute into a 10 μg/mL solution of biotin-hGFRα3-mmH. The antigen coated sensor tips were then placed into wells containing 25 μg/mL solution of a first anti-GFRα3 monoclonal antibody for 4 minutes to saturate the biotin-hGFRα3-mmH surface. The sensor tips were then subsequently dipped into wells containing 25 μ/mL solution of a second anti-GFRα3 monoclonal antibody. The sensor tips were washed in Octet HBST buffer in between every step of the experiment. The real-time binding response was monitored during the course of the experiment and the binding response at the end of every step was recorded as shown in FIG. 9. The response of mAb-2 binding to biotin-hGFRα3-mmH pre-complexed with the first antibody was compared and competitive/non-competitive behavior of different anti-GFRα3 monoclonal antibodies was determined.
With B11 the “binding response of second antibody (nm)” value was 0.07 nm. For B1, the “binding response of second antibody (nm)” value was 0.18 nm. In the case of B6, the “binding response of second antibody (nm)” value is reported as 0.05 nm. With B7 the “binding response of second antibody (nm)” value was 0.07 nm. B12 was tested, and the “binding response of second antibody (nm)” value was 1.76 nm. B13 was tested, and the “binding response of second antibody (nm)” value was 0.06 nm.

These binders were tested against T2, human GFRα3 expressed with a C-terminal … (assay: Octet cross-competition; biotin-hGFRα3-mmH pre-saturated with first antibody H4H2357S).
Experimental: as §1
In the case of B11, the “binding response of second antibody (nm)” value is reported as 0.04 nm. With B1 the “binding response of second antibody (nm)” value was 0.18 nm. For B6, the “binding response of second antibody (nm)” value was 0.12 nm. In the case of B7, the “binding response of second antibody (nm)” value is reported as 0.06 nm. In the case of B12, the “binding response of second antibody (nm)” value is reported as 1.9 nm. With B13 the “binding response of second antibody (nm)” value was 0.01 nm.

These binders were tested against T2, human GFRα3 expressed with a C-terminal … (assay: Octet cross-competition; biotin-hGFRα3-mmH pre-saturated with first antibody H4H2243N2).
Experimental: as §1
With B11 the “binding response of second antibody (nm)” value was 0.3 nm. B1 was tested, and the “binding response of second antibody (nm)” value was 0.52 nm. For B6, the “binding response of second antibody (nm)” value was 0.39 nm. In the case of B7, the “binding response of second antibody (nm)” value is reported as 0.33 nm. B12 was tested, and the “binding response of second antibody (nm)” value was 0.22 nm. For B13, the “binding response of second antibody (nm)” value was 0.06 nm.

The binders below were run against T2, human GFRα3 expressed with a C-terminal … (assay: Octet cross-competition; biotin-hGFRα3-mmH pre-saturated with first antibody H4H2291S).
Experimental: as §1
For B11, the “binding response of second antibody (nm)” value was 0.01 nm. With B1 the “binding response of second antibody (nm)” value was 0.05 nm. B6 was tested, and the “binding response of second antibody (nm)” value was 0 nm. In the case of B7, the “binding response of second antibody (nm)” value is reported as -0.01 nm. With B12 the “binding response of second antibody (nm)” value was 1.96 nm. With B13 the “binding response of second antibody (nm)” value was 0 nm.

Reference: US20140056903A1 (Regeneron, published 2014)
